# Target: Macaca fascicularis CD3ε/δ-Fc fusion heterodimer (Macaca fascicularis) (UniProt Q95LI8)
# Experiment: SPR Biacore, Fab; unit inferred
# Macaca fascicularis CD3ε/δ-Fc fusion heterodimer (Macaca fascicularis), sequence (chain, as listed by the source mutant, chain 1 of 2): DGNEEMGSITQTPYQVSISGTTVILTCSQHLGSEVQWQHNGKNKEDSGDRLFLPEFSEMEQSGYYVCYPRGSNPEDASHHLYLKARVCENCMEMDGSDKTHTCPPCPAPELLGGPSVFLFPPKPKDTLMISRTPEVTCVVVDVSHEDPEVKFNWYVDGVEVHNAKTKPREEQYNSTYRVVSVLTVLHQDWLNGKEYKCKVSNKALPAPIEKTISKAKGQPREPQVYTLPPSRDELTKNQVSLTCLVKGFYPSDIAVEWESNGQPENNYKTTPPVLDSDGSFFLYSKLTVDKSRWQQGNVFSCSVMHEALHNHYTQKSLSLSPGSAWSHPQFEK
# Macaca fascicularis CD3ε/δ-Fc fusion heterodimer (Macaca fascicularis), sequence (Q95LI8 22-105, stated change not applied, chain 2 of 2): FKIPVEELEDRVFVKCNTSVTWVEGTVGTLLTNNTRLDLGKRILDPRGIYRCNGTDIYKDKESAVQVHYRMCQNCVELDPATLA
row,Kd [nM],Binder
1,3.13,"humanized 4B4 Fab 4B4_1 (VL1a / VH1B) (Fab, V domains shown) VH: QVQLVETGGGLVKPGQSLKLTCATSGFTFSNAWMHWVRQSPEKGLEWVAQIKARSNNYATYYAVSVKGRFTISRDDSKSTIYLQMNSLTPEDTAIYYCRGTYYASKPFDYWGQGVMVTVSS VL: DVVMTQTPVSLSVSVGGRVSISCRSSQSLVHDNGNTYLSWSLQKPGKSPKVLIYKVSNRFSGVSSRFTGSGSGTDFTLKISSVQPDDLGVYYCGQGTQYPFTFGSGTKLEIK"
2,7.57,"humanized 4B4 Fab 4B4_2 (VL1b / VH1B) (Fab, V domains shown) VH: QVQLVETGGGLVKPGQSLKLTCATSGFTFSNAWMHWVRQSPEKGLEWVAQIKARSNNYATYYAVSVKGRFTISRDDSKSTIYLQMNSLTPEDTAIYYCRGTYYASKPFDYWGQGVMVTVSS VL: DVVMTQTPVSLSVSVGGRVSISCRSSQSLVHDNANTYLSWSLQKPGKSPKVLIYKVSNRFSGVSSRFTGSGSGTDFTLKISSVQPDDLGVYYCGQGTQYPFTFGSGTKLEIK"

# Target: Macaca fascicularis CD3ε/δ-Fc fusion heterodimer (Macaca fascicularis) (UniProt Q95LI8)
# Experiment: SPR single point, hybridoma supernatant
row,Binder,RU at 25 nM [RU]
1,"11F9-F8 anti-CD3 antibody (antibody, V domains shown) VH: EVQLVETGGTLVQPGKSLKLTCATSGFTFSNAWMHWVRQSPEKQLEWVAQIKAKSNNYATYYAESVKGRFTISRDDSKTSVYLQLNSLREEDTAIYYCRGTQYGYNPFDYWGQGVMVTVSS VL: DVVLTQTPVSLSVSLGGQVSISCRSSQSLVHNNGNTYLSWSLQKPGQSPQVLIYKVSNRFSGISNRFSGSGSGTDFTLKISRVEPDDLGVYYCGQGAHYPFTFGSGTKLEIK",16
2,"4B4-D7 anti-CD3 antibody (antibody, V domains shown) VH: EVQLVETGGRLVQPGRSLKLTCATSGFTFSNAWMHWVRQSPEKQLEWVAQIKARSNNYATYYAESVKGRFTISRDDSKSTIYLQMNSLKEEDTAIYYCRGTYYASKPFDYWGQGVMVTVSS VL: DVVMTQTPVSLSVSLGGQVSISCRSSQSLVHDNGNTYLSWSLQRPGQSPQVLIYKVSNRFSGTSDRFTGSGSGTDFTLKISRVEPDDLGVYYCGQGTQYPFTFGSGTKLEIK",14
3,"10E6-G6 anti-CD3 antibody (antibody, V domains shown) VH: EVQLVETGGGLVQSGKSLKLTCATSGFTVTNAWMHWVRQSPEKQLEWVAQIKAKSNNYETYYAESVKGRFTISRDDSKSSVYLQMNSLKEEDTAIYYCRGTQYGYNPFDYWGQGVMVTVSS VL: DVVMTQSPVSLSVSLGGQVSISCRSSQSLVHNNGYTYLSWYLQKPGQSPQVFIYKVSNRFSGISDRFSGSGSGTDFTLKISRIEPDDLGVYYCGQGTHYPFTFGSGTKLEIK",0
4,"3H6-D2 anti-CD3 antibody (antibody, V domains shown) VH: EVQLVETGGRLVQPGKSLKLTCATSGFTFSNAWMHWVRQSPEKQLEWVAQIKDKSNNYATYYAESVKGRFTISRDDSKSIIYLQMNSLKEEDTAIYYCRALTYYGYKRDAMDGWGHGTSVTVSS VL: DVVMTQTPVSLSVSLGGQVSISCRSSQSLVHNNGNTYLSWYLQKPGQSPQLLIYKVSNRFSGISDRFSGSGSGTDFTLKISRVEPDDLGVYYCGQGTQYPFTFGAGTKLELK",7
5,"11F3-B9 anti-CD3 antibody (antibody, V domains shown) VH: EVQLVETGGSLVQPGKSLTLTCATSGFTFSNAWMHWVRQSPEKQLEWVAQIKAKSNNYATYYAESVKGRFTISRDDSKRSVYLQMNSLKEEDTAIYYCRYVNYGLAPMDVWGQGTSVTVSS VL: DVVMTQTPVSLSVSLGGQVSISCRSSQSLVHDNGNTYLSWYLQKPGQSPQLLIYKVSNRFSGFSDRFSGSGSGTDFTLKISRVEPDDLGVYYCGQGTQYPFTFGAGTKLELK",17
6,"4E7-C9 anti-CD3 antibody (antibody, V domains shown) VH: EVQVVETGGSLVQPGKSLKLTCATSGFTFSNAWMHWVRQSPEKQLEWVAQIKDKSNNYATYYAESLKGRFTISRDDPKRSIYLQMNSLREEDTAIYYCRYVHYGIGYAMDAWGQGTSVTVSS VL: DVVMTQTPVSLSVSLGGQVSISCRSSQSLEHNNGNTYLSWYLQKPGQSPQPLIYKVSNRFSGISDRFSGSGSGTDFTLKISRVEPDDLGVYYCGQGTQYPFTFGPGTKLELK",10
7,"11D7-C3 anti-CD3 antibody (antibody, V domains shown) VH: EVQFVETGGSLVQPGKSLKLTCATSGFTFSNAWMHWVRQSPEKQLEWVAQIKAKSNNYATYYAESVKGRFTISRDDSKSSVYLQMNSLKEEDTATYYCRGLYYGLSPSDYWGQGVMVTVSS VL: DVVMTQTPVSLSVSLGGQVSISCRSSQSLVHNNGNTYLSWYLQKPGQSPQLLIYKVSNRFSGISDRFSGSGSGTDFTLKISRVEPDDLGVYYCGQGTHYPFTFGSGTKLEIK",10
8,"5B1-G2 anti-CD3 antibody (antibody, V domains shown) VH: EVQVVETGGSLVQPGKSLKLTCATSGFSFSNAWMHWVRQSPEKQLEWVAQIKDKANNYATYYAESVKGRFTISRDDSKGSIYLQMNSLKEEDTAVYYCRGLYYGLFPSDYWGQGVMVTVSS VL: DVVMTQTPVSLSVSLGGQVSISCRSSQSLVHNNGNTYLSWYLLKPGQSPQLLIYKVSNRFSGISDRFSGGGSGTDFTLKISRLEPDDLGIYYCGQGTQYPFTFGSGTKLEIK",0.5
9,"10F4-C10 anti-CD3 antibody (antibody, V domains shown) VH: EVQLVETGGSLVQPGKSLKITCATSGFTFSNAWMHWVRQSPEKQLEWVAQIKAKSNNYATYYAESVKGRFTISRDDSKSSIYLQMNSLKEEDTAIYYCRAVNYGNYPLDYWGQGVMVTVSS VL: DVVMTQTPVSLSVSLGGQVSISCRSSQSLVHNNGNTYLSWCLQKPGQSPQLLIYKVSNRFSGISDRFSGSGSGTDFTLKISRVEPDDLGVYYCGQGTQYPFTFGAGTKLELK",27
10,"6C9-C9 anti-CD3 antibody (antibody, V domains shown) VH: AVQLVESGGGLVRPKESLKISCAASGFTFRNAAMYWVRQAPGKGLEWVARIRTQPNNYAKYYADSVKDRFTISRDDSKSMVYLQMDNLKTEDTAMYYCTGLVVTAMDAWGQGTSVTVSS VL: DIQMTQSPSFLSASVGDRVTINCKASQNINKYLNWYQQKLGEAPKLLIYVTNNLQTGIPSRFSGSGSGTDYTLTISSLQPEDVATYFCLQHRSMYTFGTGTKLELK",32
11,"8H2-F3 anti-CD3 antibody (antibody, V domains shown) VH: QIQLVQSGPELKKPGESVKISCKASGYTFTDFAMNWVKQAPGNGLKWMGWINTQTGKPTYADGFKQRFVFSLETSASTIYLQINNLNIEDTATYFCTRGALASVGQGVMVTVSS VL: DVVMTQTPVSLSVAIGQPASISCKSSQSLVGTSGKTYLNWLLQRPGQSPKRLIYLVSKLDSGIPDRFSGSGSETDFTLKISRVETDDLGVYYCLQGSHFPLTFGSGTKLEIK",40

# Second part, the binder after the results:
row,RU at 25 nM [RU],Binder
1,55,"18H11-F10 anti-CD3 antibody (antibody, V domains shown) VH: EVQLVESGGGLVQPGRSLKLSCAASGFIFSDYYMAWVRQAPKKGLEWVATISISGSRTYYPDSVKGRFTVSRDNAKSSLYLQMNSLKSEDTATYYCATNNPGGWFVYWGQGTLVTVSS VL: NIQMTQSPSLLSASVGDRVTLSCKAGQNINNDLAWYQQKLGEAPRLLIYNANSLQTGIPSRFSGSGSGADFTLTISSLQPEDVATYFCQQYSSGDTFGAGTKLELK"
2,15.5,"13C1-F6 anti-CD3 antibody (antibody, V domains shown) VH: EVQLVETGGTLVQPGKSLKLTCATSGFTFSNAWMHWVRQSPEKQLEWVAQIKAKSNNYATYYAESVKGRFTISRDDSKTSVYLQLNSLREEDTAIYYCRGTQYGYNPFDYWGQGVMVTVSS VL: DVVMTQSPVSLSVSLGGQVSISCRSSQSLVHNNGNTYLSWYLQRSGQSPQLLIYKVSNRLSGISDRFSGSGSGTDFTLKISRIEPDDLGVYYCGQGTQYPFTFGSGTRLEIK"
3,17,"12G3-E8 anti-CD3 antibody (antibody, V domains shown) VH: EVRVVETGGSLVQPGKSLKLTCATSGFTFSLAWMHWVRQSPEKKLEWVAQIKDKANNYATYYAESVKGRFTISRDDSKRSVYLQMNRLKEEDTAIYYCRGVYYGFSMTPFDYWGQGVMVTVSS VL: DVAMTQTPVSLSVSLGGQVSISCRSSQSLVHNNGNTYLSWYLQKPGQSPQVLIYKVSNRFSGISDRFSGSGSGADFTLKISRVEPDDLGVYYCGQGTQYPFTFGAGTKLELK"
4,8,"20E5-F10 anti-CD3 antibody (antibody, V domains shown) VH: EVQLVETGENLVQPGKSLRLTCATSGFSFSNAWMHWIRQSPEKQLEWVAQIKDKSNNYATYYAESVNGRFTISRDDSKSSIYLHMDNLKEEDSAIYYCRYVHYGVRFFYTMDVWGQGTSVTVSS VL: DVVMTQTPVSLSVSLGDQVSISCRPSQSLVHNNGNTYLSWYLQKPGQSPHPLIYKVSNRFSGISDRFSGSGSGTDFTLKISRVEPDDLGVYYCGQGTQYPFTFGSGTKLEIK"
5,22.5,"16F8-A7 anti-CD3 antibody (antibody, V domains shown) VH: VETGGNLVQPGKSLKLTCATSGFTFSNAWMHWVRQSPEKQLEWVAQIKAKSNNYATYYAESVKGRFTISRDDSKSSVYLQMNSLKEEDTAIYYCRYVNYGLAPMDVWGQGTSVTVSS VL: DVVMTQTPVSLSVSLGGQVSISCRSSQSLVHNNGNTYLSWYLQKPGQSPQLLIYKVSNRFSGFSDRFSGSGSGTDFTLKISRVEPDDLGVYYCGQGTQYPFTFGAGTKLELK"
6,-7,"18G9-H11 anti-CD3 antibody (antibody, V domains shown) VH: EVQLVETGGSLVQPGKSLKLTCATSGFTFSNAWIQWVRQSPEKQLEWVAQIKAKSNNYATYYAESVKGRFTISRDDSKSSVYLQMNSLKEEDTALYYCTWRHYYSSHTMDAWGQGTLVTVSS VL: DVVMTQTPVSLSVSLGGQVSISCRSSQSLVHNNGNTYLSWYLQKPGQSPQLLIYKVSNRFSGISDRFSGSGSGTDFTLKISRVAPTDLGVYYCGQGSQYPFTFGAGTKLELK"
7,7,"13H2-C3 anti-CD3 antibody (antibody, V domains shown) VH: EEELVETGGSLVQPGKSLKLTCATSGFTFSNAWMHWVRQSPDKQLEWVAQIKAKSNNYATYYAESVKGRFTISRDDSKSSVYLQMNNLKEEDTAIYYCRYVHYGLAPMDAWGQGTSVTVSS VL: DVVMTQTPVSLSVSLGGQVSISCRSSQSLVHNNGNTYLSWYLQKAGQSPQLLIYKVSNRFSGISDRFSGSGSGTDFILKISRVEPDDLGVFYCGQGTQYPFTFGAGTKLELK"
8,5,"12D2-E5 anti-CD3 antibody (antibody, V domains shown) VH: EVKLVESGGGLVQPGRSLRLSCAASGFNFYAYWMGWVRQAPGKGLEWIGEIKKDGTTINYTPSLKDRFTISRDNAQNTLYLQMTKLGSEDTALYYCAREERDGYFDYWGQGVMVTVSS VL: QFVLTQPNSVSTNLGSTVKLSCKRSTGNIGSNYVNWYQQHEGRSPTTMIYRDDKRPDGVPDRFSGSIDRSSNSALLTINNVQTEDEADYFCQSYSSGIVFGGGTKLTVL"
